Experimental data published in patent US20240093191A1, “COMPOSITIONS AND METHODS FOR TREATING DISEASE ASSOCIATED WITH DUX4 OVEREXPRESSION” (RESEARCH INSTITUTE AT NATIONWIDE CHILDREN'S HOSPITAL, priority 2021, published 2024).

Key:
mir-675 = details: published gene expression studies; cited from earlier work
[1] = system: DUX4 ORF (RenLuc-DUX4 ORF); assay: Dual-luciferase assay, RenLuc-DUX4 ORF reporter co-transfected with miDUX4 plasmids in HEK293 cells; format: cell-based, human; details: DUX4:mi405 molar ratio 2 to 1; HEK293; 24 h; normalized to U6.miGFP
Description: Dual Luciferase Assay. (See also FIGS. 1A, 3A-B, 4A-B, 5B, and 16B-C.) This assay was performed as previously described by Wallace et al. (Mol. Ther. Methods Clin. Dev. 8: 121-30 (2018)) and following the dual-luciferase reporter assay system (Promega) protocol with some modifications. All plasmid constructs had the psiCheck2 dual luciferase reporter plasmid (Promega) as backbone that contains separate Renilla and Firefly luciferase genes, where the former contains the various target sequences used in the experiments of the disclosure, and the latter serves as a transfection normalizer (control). All DUX4 and control sequences were cloned downstream of the Renilla luciferase stop codon, serving as a 3′UTR. HEK293 cells were pre-plated 24h before transfection. Cells were then co-transfected with the luciferase DUX4 reporter and individual microRNA expression plasmids in an increasing luciferase DUX4 reporter:miRNA molar ratio using Lipofectamine 2000 (Invitrogen). Luciferase activity was measured 24h or 48h after transfection. DUX4 gene silencing was determined as previously described [Wallace et al., Mol. Ther. Methods Clin. Dev. 8: 121-30 (2018)]. Triplicate data were averaged per experiment, and individual experiments were performed 3 times. Results were reported as the average ratio of Renilla to Firefly luciferase activity±SEM for all combined experiments.
Accordingly, two new mi405 constructs, i.e., mi405F and mi405NF, were designed. […] To assess the inhibition efficiency of the three mi405 constructs, a dual-luciferase assay and western blot analysis, similar to what was described for mir-675, were carried out. In the dual-luciferase assay, U6.mi405, U6.mi405F, or U6.mi405NF was co-transfected into HEK293 cells along with the RenLuc-DUX4 ORF (a construct expressing the open reading frame of DUX4 as a 3′UTR sequence of Renilla Luciferase). 24 h after transfection, U6.mi405, U6.mi405F, and U6.mi405NF reduced the relative Renilla luciferase activity by 85±1%, 89±1%, and 66±1% (P<0.0001, ANOVA, N=3), respectively, when tested against the RenLuc-DUX4 ORF construct.

mi405 mature sequence = assay: QPCR of mature mi405 (standard TaqMan cDNA synthesis) in HEK293 cells; format: cell-based, human; details: 24 h after transfection; for reduction of mature mi405 sequence expression relative to U6.mi405: normalized to RPL13A
Description: TaqMan Gene Expression Assay. QRT-PCR was carried out to quantify the expression of pri-mir-675, mir-675-5p and mi405 using TaqMan probes (ThermoFisher Scientific). Experiments were started by eliminating genomic DNA from the RNA preparations, and then cDNA was generated using the High-Capacity cDNA Reverse Transcription Kit (Applied Biosystems) following manufacturer's instructions. Within the same cDNA reaction, 1×RT random hexamer primers were used to generate the cDNA for RPL13A, used as a reference gene, and for pri-mir-675. To generate the cDNA for mir-675, the RT mir-675 reverse primer provided by ThermoFisher Scientific was used. For mi405, the mi405 qPCR protocol was done as it was previously described [Wallace et al., Mol. Ther. Methods Clin. Dev. 8: 121-30 (2018)]. To quantify mir-675 and mi405 levels, RNA was extracted using the total RNA protocol for the mirVana miRNA Isolation Kit (Ambion) from HEK293 cells. cDNA was generated using the High-Capacity cDNA Reverse Transcription Kit (Applied Biosystems) using a mix of random hexamer primers and specific reverse primer for pri-mir-675 and mir-675-5p. For mi405, 200 nM of the stem-loop forming primer (5′-[…]-3′) (SEQ ID NO: 144) was also used for the RT step. A custom TaqMan assay (Applied Biosystems) including 1.5 μM of Forward primer (5′-[…]-3′) (SEQ ID NO: 145), 0.7 μM of Reverse primer (5′-GTGCAGGGTCCGAGGT-3′) (SEQ ID NO: 146), and 0.2 μM of mi405 probe (5′-6FAM-ATACGACGTCCAGGAT-3′) (SEQ ID NO: 147) was then run using the CFX Connect Real Time system apparatus (Bio-Rad). RPL13A (Mm02526700_g1; Applied Biosystems) served as the reference gene. The TaqMan gene expression assay consisted of using the TaqMan Gene Expression Master mix and TaqMan probes purchased from ThermoFisher Scientific. 1× of probe was mixed with 1× of the TaqMan Gene Expression Master mix (ThermoFisher Scientific), and with 20 ng of cDNA. The mir-675- and mi405-specific primers and probes were designed to quantify only the mir-675-5p and mi405 mature sequence (see TaqMan Gene Expression Master mix protocol).
Apart from the effect on the inhibition efficiency of mi405, the effect of the flanking sequences on the expression of the miRNA also was tested. Therefore, the expression of the processed mature mi405 sequences was quantified using the standard and advanced TaqMan cDNA synthesis reaction. In the former reaction, a reverse primer detects the mature mi405 sequence following a stem-loop primer-based small RNA detection principle (ThermoFisher Scientific) (Jung et al., RNA (2013) 19: 1-10). The amplification and quantification steps were then performed using a standard TaqMan probe specific to mi405 that base pairs at the junction between the mi405 mature sequence and the reverse primer sequence (FIG. 6A). […] In the TaqMan advanced cDNA synthesis reaction, the mature sequence is extended through ligation of an adaptor sequence at the 5′ end and through the enzymatic addition of a polyA tail at the 3′ end of the mature mi405 sequence. The amplification and quantification steps were then performed using a TaqMan advanced probe specific to mi405 that normally base pairs with the 3′ end of the mature miRNA and with part of the adaptor sequence. Here, an additional TaqMan advanced probe (embedded probe) that only base pairs with the mature sequence of mi405 (FIG. 6B) was used. As a result, following TaqMan advanced cDNA synthesis reaction, droplet digital PCR (ddPCR) was performed to quantify mi405, mi405F, mi405B, mi405C, mi405G and mi405H expression levels. For this, TaqMan advanced embedded and overlapped mi405 probes (FIG. 6B) were used.

| Molecule | mir-675 expression (mir-675) | reduction of Renilla luciferase activity [1] [%] | reduction of mature mi405 sequence expression relative to U6.mi405 (mi405 mature sequence) [%] | levels of mature mi405 sequence compared to U6.mi405 (mi405 mature sequence) |
| --- | --- | --- | --- | --- |
| bleomycin | upregulated mir-675 expression |  |  |  |
| estrogen | mir-675 was induced |  |  |  |
| U6.mi405C: mi405 construct with altered flanking sequences (nucleic acid) DNA: ACGCCGCCATCTCTAGGCCCGCGCCGGCCCCCTCGCACAGACTTGTGGGAGAAGCTCGGCTACTCCCCTGCCCCGGTTAATTTGCATATAATATTTCCTAGTAACTATAGAGGCTTAATGTGCGATAAAAGACAGATAATCTGTTCTTTTTAATACTAGCTACATTTTACATGATAGGCTTGGATTTCTATAAGAGATACAAATACTAAATTATTATTTTAAAAAACAGCACAAAAGGAAACTCACCCTAACTGTAAAGTAATTGTGTGTTTTGAGACTATAAATATCCCTTGGAGAAAAGCCTTGTTTGCTCGAGTGAGCGATCCAGGATTCAGATCTGGTTTCTGTAAAGCCACAGATGGGAAACCAGATCTGAATCCTGGACTGCCTACTAGAGCGGCCGCCACTTTTTT |  | 64±1 | 63±27 |  |
| U6.mi405B: mi405 construct with altered flanking sequences (nucleic acid) DNA: ACGCCGCCATCTCTAGGCCCGCGCCGGCCCCCTCGCACAGACTTGTGGGAGAAGCTCGGCTACTCCCCTGCCCCGGTTAATTTGCATATAATATTTCCTAGTAACTATAGAGGCTTAATGTGCGATAAAAGACAGATAATCTGTTCTTTTTAATACTAGCTACATTTTACATGATAGGCTTGGATTTCTATAAGAGATACAAATACTAAATTATTATTTTAAAAAACAGCACAAAAGGAAACTCACCCTAACTGTAAAGTAATTGTGTGTTTTGAGACTATAAATATCCCTTGGAGAAAAGCCTTGTTTGACCGTTTAAACTCGAGTGAGCGATCCAGGATTCAGATCTGGTTTCTGTAAAGCCACAGATGGGAAACCAGATCTGAATCCTGGACTGCCTACTAGATTTTTT |  | 25±3 | 71±9 |  |
| U6.mi405D: mi405 construct with altered flanking sequences (nucleic acid) DNA: ACGCCGCCATCTCTAGGCCCGCGCCGGCCCCCTCGCACAGACTTGTGGGAGAAGCTCGGCTACTCCCCTGCCCCGGTTAATTTGCATATAATATTTCCTAGTAACTATAGAGGCTTAATGTGCGATAAAAGACAGATAATCTGTTCTTTTTAATACTAGCTACATTTTACATGATAGGCTTGGATTTCTATAAGAGATACAAATACTAAATTATTATTTTAAAAAACAGCACAAAAGGAAACTCACCCTAACTGTAAAGTAATTGTGTGTTTTGAGACTATAAATATCCCTTGGAGAAAAGCCTTGTTTGACTCGAGTGAGCGATCCAGGATTCAGATCTGGTTTCTGTAAAGCCACAGATGGGAAACCAGATCTGAATCCTGGACTGCCTACTAGAGCGGCCGCCACTTTTTT |  | 71±1 |  | greater or higher with the difference not being statistically significant |
| U6.mi405E: mi405 construct with altered flanking sequences (nucleic acid) DNA: ACGCCGCCATCTCTAGGCCCGCGCCGGCCCCCTCGCACAGACTTGTGGGAGAAGCTCGGCTACTCCCCTGCCCCGGTTAATTTGCATATAATATTTCCTAGTAACTATAGAGGCTTAATGTGCGATAAAAGACAGATAATCTGTTCTTTTTAATACTAGCTACATTTTACATGATAGGCTTGGATTTCTATAAGAGATACAAATACTAAATTATTATTTTAAAAAACAGCACAAAAGGAAACTCACCCTAACTGTAAAGTAATTGTGTGTTTTGAGACTATAAATATCCCTTGGAGAAAAGCCTTGTTTGACTCGAGTGAGCGATCCAGGATTCAGATCTGGTTTCTGTAAAGCCACAGATGGGAAACCAGATCTGAATCCTGGACTGCCTACTAGAGCGCACGCCAGTTTTTT |  | 73±1 |  | greater or higher with the difference not being statistically significant |
| U6.mi405A: mi405 construct with altered flanking sequences (nucleic acid) DNA: ACGCCGCCATCTCTAGGCCCGCGCCGGCCCCCTCGCACAGACTTGTGGGAGAAGCTCGGCTACTCCCCTGCCCCGGTTAATTTGCATATAATATTTCCTAGTAACTATAGAGGCTTAATGTGCGATAAAAGACAGATAATCTGTTCTTTTTAATACTAGCTACATTTTACATGATAGGCTTGGATTTCTATAAGAGATACAAATACTAAATTATTATTTTAAAAAACAGCACAAAAGGAAACTCACCCTAACTGTAAAGTAATTGTGTGTTTTGAGACTATAAATATCCCTTGGAGAAAAGCCTTGTTTGACCGTTTAAACTCGAGTGAGCGATCCAGGATTCAGATCTGGTTTCTGTAAAGCCACAGATGGGAAACCAGATCTGAATCCTGGACTGCCTACTAGAGCGGCCGCCACTTTTTT |  | 72±1 |  | greater or higher with the difference not being statistically significant |
